Source: patent US20220251236A1 (Boehringer Ingelheim, published 2022)

T1: human DLL3 (endogenous, on SCLC cell lines NCI-H82 and SHP77 and in SCLC tissue) (human, UniProt Q9NYJ7 27-618)
T1 sequence (looked up): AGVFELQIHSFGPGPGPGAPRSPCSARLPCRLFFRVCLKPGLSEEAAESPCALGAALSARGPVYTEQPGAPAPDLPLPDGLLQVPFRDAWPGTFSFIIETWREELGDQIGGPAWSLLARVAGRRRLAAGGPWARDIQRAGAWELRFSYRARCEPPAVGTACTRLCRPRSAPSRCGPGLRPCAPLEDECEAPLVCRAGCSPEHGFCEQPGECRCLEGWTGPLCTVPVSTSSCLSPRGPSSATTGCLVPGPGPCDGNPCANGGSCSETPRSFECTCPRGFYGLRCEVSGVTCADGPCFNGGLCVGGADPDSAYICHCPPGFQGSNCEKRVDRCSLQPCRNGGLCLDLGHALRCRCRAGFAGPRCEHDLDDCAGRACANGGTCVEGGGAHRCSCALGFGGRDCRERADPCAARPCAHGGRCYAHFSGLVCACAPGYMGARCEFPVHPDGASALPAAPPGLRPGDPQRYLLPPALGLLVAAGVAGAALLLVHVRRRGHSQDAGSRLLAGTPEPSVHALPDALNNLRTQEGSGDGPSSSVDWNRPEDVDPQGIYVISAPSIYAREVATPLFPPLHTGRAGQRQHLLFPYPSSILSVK

T2: EGF6+MEMBRANE PROXIMAL PEPTIDE
T2 construct: also called Hu DLL3 EGF6+membrane proximal peptide on HEK293 cells
T2 membrane-anchored DLL3 subdomain construct: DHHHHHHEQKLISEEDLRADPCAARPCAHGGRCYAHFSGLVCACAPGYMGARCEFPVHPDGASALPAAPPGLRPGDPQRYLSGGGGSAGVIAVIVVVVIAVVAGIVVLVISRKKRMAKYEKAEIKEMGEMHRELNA

T3: Cyno DLL3-His (cynomolgus monkey, UniProt Q9NYJ7 27-492 (human entry))
T3 construct: also called cy DLL3; recombinant cyno DLL3-ECD
T3 chain: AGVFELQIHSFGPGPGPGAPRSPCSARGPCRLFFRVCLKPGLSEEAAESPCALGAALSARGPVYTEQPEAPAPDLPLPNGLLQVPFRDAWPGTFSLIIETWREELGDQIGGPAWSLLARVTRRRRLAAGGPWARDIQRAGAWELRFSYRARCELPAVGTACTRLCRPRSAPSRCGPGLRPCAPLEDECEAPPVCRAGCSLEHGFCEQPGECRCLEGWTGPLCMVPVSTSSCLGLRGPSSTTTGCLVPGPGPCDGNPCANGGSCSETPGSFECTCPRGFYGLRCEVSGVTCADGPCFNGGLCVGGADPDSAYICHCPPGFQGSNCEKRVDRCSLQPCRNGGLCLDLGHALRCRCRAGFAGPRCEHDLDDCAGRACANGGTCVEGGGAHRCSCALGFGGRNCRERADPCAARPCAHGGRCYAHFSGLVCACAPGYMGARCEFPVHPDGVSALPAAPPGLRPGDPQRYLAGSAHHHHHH


Experiments:
[1] = molecular target: T1, human DLL3 (endogenous, on SCLC cell …); assay: cell-based or functional assay
[2] = molecular target: T2, EGF6+MEMBRANE PROXIMAL PEPTIDE; assay: flow cytometry on HEK293 cells expressing the DLL3 subdomain construct, 1.6 nM binder, PE anti-human secondary, control: secondary antibody only
Description: DLL3/CD3 binding proteins were produced by transient transfection of CHO-E cells with the pTT5 vectors carrying the chain-encoding genes, as described in Example 2. […] Bound molecules were detected with PE-conjugated anti-human secondary antibody (Sigma-Aldrich, #P8047). As negative control, cells were incubated with secondary antibody only.
The samples were measured by flow-cytometry. […] The sequences of the epitope domains are listed in Example 5, Table 3.

Cyno DLL3-His = molecular target: T3, Cyno DLL3-His; assay: SPR; ratio of the KD values for human and cyno DLL3
Description: (§1) The binding affinity of purified DLL3/CD3 bispecific constructs for recombinant human and cyno DLL3-ECD and Fc-fusion proteins of human and cyno CD3 εγ subunits was determined by Surface Plasmon Resonance (SPR), using a ProteOn XPR36 instrument (Bio-Rad). The running buffer and all dilutions (except where stated) were done in PBS-T-EDTA. The GLM sensor chip (Bio-Rad) was normalized and pre-conditioned as per the manufacturer's recommendations. The sensor chip was activated with equal mixture of EDC/s-NHS in the horizontal direction for 300 sec at a flow rate of 30 ul/min and immobilized with protein A/G (20 ug/ml in 10 mM acetate pH 4.5) in the horizontal direction for 300 sec at a flowrate of 30 ul/min resulting in ˜5000 RU of protein A/G on the surface. The sensor chip was deactivated with 1M ethanolamine HCl in the horizontal direction for 300 sec at a flowrate of 30 μl/min.
For binding kinetic determination to DLL3, bispecific molecules were captured individually on the protein A/G surface vertically for 250 sec at a flowrate of 25 μl/min. The baseline was stabilized by injecting PBS-T-EDTA for 60 sec at a flowrate of 40 μl/min horizontally. The analyte (hu DLL3 or cy DLL3) was injected horizontally over the captured antibody for 600 sec at a flowrate of 40 μl/min and a dissociation for 2700 sec.
(§2) The inter spot (interactions with sensor surface) and blank (PBS-T-EDTA) were subtracted from the raw data.

[3] = molecular target: T1, human DLL3 (endogenous, on SCLC cell …); assay: cell-based or functional assay; remark: listed apart in the source
Human CD3 E+G HuFc-6xHis = molecular target: T4, Human CD3 E+G HuFc-6xHis (human); assay: SPR (ProteOn XPR36), CD3εγ-Fc amine-coupled, bispecific as analyte, equilibrium fit, Example 4A
T4 construct: also called hu CD3εγ-Fc
T4 sequence (chain, as listed by the source limits assumed): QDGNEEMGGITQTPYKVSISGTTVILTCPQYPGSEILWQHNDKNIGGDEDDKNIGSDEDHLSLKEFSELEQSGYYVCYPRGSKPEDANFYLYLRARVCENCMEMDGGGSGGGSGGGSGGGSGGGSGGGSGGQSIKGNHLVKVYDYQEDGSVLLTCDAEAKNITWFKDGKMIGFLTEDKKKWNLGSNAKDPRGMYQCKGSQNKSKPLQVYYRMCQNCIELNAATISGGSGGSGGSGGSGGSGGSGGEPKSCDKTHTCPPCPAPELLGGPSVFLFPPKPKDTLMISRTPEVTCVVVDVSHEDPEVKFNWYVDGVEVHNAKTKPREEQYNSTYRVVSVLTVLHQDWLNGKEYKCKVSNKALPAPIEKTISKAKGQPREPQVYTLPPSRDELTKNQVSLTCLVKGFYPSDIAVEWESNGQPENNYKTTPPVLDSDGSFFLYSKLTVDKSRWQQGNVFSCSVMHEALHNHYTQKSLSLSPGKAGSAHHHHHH
Description: as §1
For binding kinetic determination to CD3, hu CD3εγ-Fc and cy CD3εγ-Fc (dissolved in pH 4.5 acetate) was immobilized directly onto the sensor surface through amine coupling for 140 sec at a flowrate of 30 μl/min vertically. The baseline was stabilized by injecting PBS-T-EDTA for 60 sec at a flowrate of 40 μl/min horizontally. The analyte (the bispecific molecule) was injected horizontally over the captured CD3εγ-Fc construct for 600 sec at a flowrate of 40 μl/min and a dissociation for 600 sec.
as §2

| Binder | EC90, 72 hour cytotoxicity assay, purified T cells as effector cells, NCI-H82 target cells [1] [nM] | EC90, 72 hour cytotoxicity assay, purified T cells as effector cells, SHP77 target cells [1] [nM] | binding result [2] | Affinity gap KD hu/cyno DLL3 (Cyno DLL3-His) | EC90, 72 hour cytotoxicity assay (LDH release), non-stimulated PBMCs as effector cells, NCI-H82 target cells [3] [nM] | EC90, 72 hour cytotoxicity assay (LDH release), non-stimulated PBMCs as effector cells, SHP77 target cells [3] [nM] | Kd (Human CD3 E+G HuFc-6xHis) [nM] |
| --- | --- | --- | --- | --- | --- | --- | --- |
| DLL3#3/CD3#1 (bispecific antibody, human IgG1, kappa, lambda, L234A L235A, Heterodimer of one DLL3 chain and one CD3 chain (scFab-Fc, knob-in-hole)) chain 1: DIQMTQSPSAMSASVGDRVTITCRASQGISNYLVWFQQKPGKAPKRLIYAVSSLYSGVPSRFSGSGSGTEFTLTISSLQPEDFATYYCLQHDSYPYTFGQGTKLEIKRTVAAPSVFIFPPSDEQLKSGTASVVCLLNNFYPREAKVQWKVDNALQSGNSQESVTEQDSKDSTYSLSSTLTLSKADYEKHKVYACEVTHQGLSSPVTKSFNRGECGGGGSEGKSSGSGSESKSTEGKSSGSGSESKSTGGGGSQVQLVQSGAEVKKPGASVKVSCKASGYTFTSYYVHWVRQAPGQGLEWMVIINPGGGTTSYAQKFLGRVTMTRDTSTNTVYMELKSLRSEDTAVYYCARGEAVTGNYFYYGMDVWGQGTTVTVSSASTKGPSVFPLAPSSKSTSGGTAALGCLVKDYFPEPVTVSWNSGALTSGVHTFPAVLQSSGLYSLSSVVTVPSSSLGTQTYICNVNHKPSNTKVDKRVEPKSCDKTHTCPPCPAPEAAGGPSVFLFPPKPKDTLMISRTPEVTCVVVDVSHEDPEVKFNWYVDGVEVHNAKTKPREEQYNSTYRVVSVLTVLHQDWLNGKEYKCKVSNKALPAPIEKTISKAKGQPREPQVYTLPPSREEMTKNQVSLWCLVKGFYPSDIAVEWESNGQPENNYKTTPPVLDSDGSFFLYSKLTVDKSRWQQGNVFSCSVMHEALHNHYTQKSLSLSPG chain 2: EAVVTQEPSLTVSPGGTVTLTCRSSTGAVTTSNYANWVQEKPGQLPRGLIGGTNKRAPWVPARFSGSLLGGKAALTLSGAQPEDEAEYFCALWYSNLWVFGGGTKLTVLGQPKAAPSVTLFPPSSEELQANKATLVCLISDFYPGAVKVAWKADGSPVNTGVETTTPSKQSNNKYAASSYLSLTPEQWKSHRSYSCQVTHEGSTVEKTVAPAECSGGGGSEGKSSGSGSESKSTEGKSSGSGSESKSTGGGGSEVQLVESGGGLVQPGGSLKLSCAASGFTFNTYAMNWVRQAPGKGLEWVARIRSKYNNYATYYADSVKDRFTISRDDSKNTAYLQMNNLKTEDTAVYYCVRHGNFGNSYVSWFAYWGQGTLVTVSAASTKGPSVFPLAPSSKSTSGGTAALGCLVKDYFPEPVTVSWNSGALTSGVHTFPAVLQSSGLYSLSSVVTVPSSSLGTQTYICNVNHKPSNTKVDKRVEPKSCDKTHTCPPCPAPEAAGGPSVFLFPPKPKDTLMISRTPEVTCVVVDVSHEDPEVKFNWYVDGVEVHNAKTKPREEQYNSTYRVVSVLTVLHQDWLNGKEYKCKVSNKALPAPIEKTISKAKGQPREPQVYTLPPSREEMTKNQVSLSCAVKGFYPSDIAVEWESNGQPENNYKTTPPVLDSDGSFFLVSKLTVDKSRWQQGNVFSCSVMHEALHNRFTQKSLSLSPG | 0.27 | 0.02 | binds | 1 | 0.9 | 1.5 | 7 |
| DLL3#3/CD3#2 (bispecific antibody, human IgG1, kappa, lambda, L234A L235A, Heterodimer of one DLL3 chain and one CD3 chain (scFab-Fc, knob-in-hole)) chain 1: DIQMTQSPSAMSASVGDRVTITCRASQGISNYLVWFQQKPGKAPKRLIYAVSSLYSGVPSRFSGSGSGTEFTLTISSLQPEDFATYYCLQHDSYPYTFGQGTKLEIKRTVAAPSVFIFPPSDEQLKSGTASVVCLLNNFYPREAKVQWKVDNALQSGNSQESVTEQDSKDSTYSLSSTLTLSKADYEKHKVYACEVTHQGLSSPVTKSFNRGECGGGGSEGKSSGSGSESKSTEGKSSGSGSESKSTGGGGSQVQLVQSGAEVKKPGASVKVSCKASGYTFTSYYVHWVRQAPGQGLEWMVIINPGGGTTSYAQKFLGRVTMTRDTSTNTVYMELKSLRSEDTAVYYCARGEAVTGNYFYYGMDVWGQGTTVTVSSASTKGPSVFPLAPSSKSTSGGTAALGCLVKDYFPEPVTVSWNSGALTSGVHTFPAVLQSSGLYSLSSVVTVPSSSLGTQTYICNVNHKPSNTKVDKRVEPKSCDKTHTCPPCPAPEAAGGPSVFLFPPKPKDTLMISRTPEVTCVVVDVSHEDPEVKFNWYVDGVEVHNAKTKPREEQYNSTYRVVSVLTVLHQDWLNGKEYKCKVSNKALPAPIEKTISKAKGQPREPQVYTLPPSREEMTKNQVSLWCLVKGFYPSDIAVEWESNGQPENNYKTTPPVLDSDGSFFLYSKLTVDKSRWQQGNVFSCSVMHEALHNHYTQKSLSLSPG chain 2: EAVVTQEPSLTVSPGGTVTLTCRSSTGAVTTSNYANWVQEKPGQLPRGLIGGTNKRAPWVPARFSGSLLGGKAALTLSGAQPEDEAEYFCALWYSNLWVFGGGTKLTVLGQPKAAPSVTLFPPSSEELQANKATLVCLISDFYPGAVKVAWKADGSPVNTGVETTTPSKQSNNKYAASSYLSLTPEQWKSHRSYSCQVTHEGSTVEKTVAPAECSGGGGSEGKSSGSGSESKSTEGKSSGSGSESKSTGGGGSEVQLVESGGGLVQPGGSLKLSCAASGFTFNTYAMNWVRQAPGKGLEWVARIRSKYINYATYYADSVKDRFTISRDDSKNTAYLQMNNLKTEDTAVYYCVRHGNFGNSYVSWFAYWGQGTLVTVSAASTKGPSVFPLAPSSKSTSGGTAALGCLVKDYFPEPVTVSWNSGALTSGVHTFPAVLQSSGLYSLSSVVTVPSSSLGTQTYICNVNHKPSNTKVDKRVEPKSCDKTHTCPPCPAPEAAGGPSVFLFPPKPKDTLMISRTPEVTCVVVDVSHEDPEVKFNWYVDGVEVHNAKTKPREEQYNSTYRVVSVLTVLHQDWLNGKEYKCKVSNKALPAPIEKTISKAKGQPREPQVYTLPPSREEMTKNQVSLSCAVKGFYPSDIAVEWESNGQPENNYKTTPPVLDSDGSFFLVSKLTVDKSRWQQGNVFSCSVMHEALHNRFTQKSLSLSPG | 2.5 | 3 | binds | 1 | 3.9 | 16.5 | 90 |
